According to IntAct's records for PubMed 16525419:

B1: Nephrin (Homo sapiens), O60500 (parent)
chain: MALGTTLRASLLLLGLLTEGLAQLAIPASVPRGFWALPENLTVVEGASVELRCGVSTPGSAVQWAKDGLLLGPDPRIPGFPRYRLEGDPARGEFHLHIEACDLSDDAEYECQVGRSEMGPELVSPRVILSILVPPKLLLLTPEAGTMVTWVAGQEYVVNCVSGDAKPAPDITILLSGQTISDISANVNEGSQQKLFTVEATARVTPRSSDNRQLLVCEASSPALEAPIKASFTVNVLFPPGPPVIEWPGLDEGHVRAGQSLELPCVARGGNPLATLQWLKNGQPVSTAWGTEHTQAVARSVLVMTVRPEDHGAQLSCEAHNSVSAGTQEHGITLQVTFPPSAIIILGSASQTENKNVTLSCVSKSSRPRVLLRWWLGWRQLLPMEETVMDGLHGGHISMSNLTFLARREDNGLTLTCEAFSEAFTKETFKKSLILNVKYPAQKLWIEGPPEGQKLRAGTRVRLVCLAIGGNPEPSLMWYKDSRTVTESRLPQESRRVHLGSVEKSGSTFSRELVLVTGPSDNQAKFTCKAGQLSASTQLAVQFPPTNVTILANASALRPGDALNLTCVSVSSNPPVNLSWDKEGERLEGVAAPPRRAPFKGSAAARSVLLQVSSRDHGQRVTCRAHSAELRETVSSFYRLNVLYRPEFLGEQVLVVTAVEQGEALLPVSVSANPAPEAFNWTFRGYRLSPAGGPRHRILSSGALHLWNVTRADDGLYQLHCQNSEGTAEARLRLDVHYAPTIRALQDPTEVNVGGSVDIVCTVDANPILPGMFNWERLGEDEEDQSLDDMEKISRGPTGRLRIHHAKLAQAGAYQCIVDNGVAPPARRLLRLVVRFAPQVEHPTPLTKVAAAGDSTSSATLHCRARGVPNIVFTWTKNGVPLDLQDPRYTEHTYHQGGVHSSLLTIANVSAAQDYALFTCTATNALGSDQTNIQLVSISRPDPPSGLKVVSLTPHSVGLEWKPGFDGGLPQRFCIRYEALGTPGFHYVDVVPPQATTFTLTGLQPSTRYRVWLLASNALGDSGLADKGTQLPITTPGLHQPSGEPEDQLPTEPPSGPSGLPLLPVLFALGGLLLLSNASCVGGVLWQRRLRRLAEGISEKTEAGSEEDRVRNEYEESQWTGERDTQSSTVSTTEAEPYYRSLRDFSPQLPPTQEEVSYSRGFTGEDEDMAFPGHLYDEVERTYPPSGAWGPLYDEVQMGPWDLHWPEDTYQDPRGIYDQVAGDLDTLEPDSLPFELRGHLV

How the values were obtained:
[1] = variants of: B1; conditions: with nck1_human NCK1, P16333
[2] = variants of: B1; conditions: with nck2_human NCK2, O43639
nck2_human NCK2, O43639, sequence (O43639 whole entry): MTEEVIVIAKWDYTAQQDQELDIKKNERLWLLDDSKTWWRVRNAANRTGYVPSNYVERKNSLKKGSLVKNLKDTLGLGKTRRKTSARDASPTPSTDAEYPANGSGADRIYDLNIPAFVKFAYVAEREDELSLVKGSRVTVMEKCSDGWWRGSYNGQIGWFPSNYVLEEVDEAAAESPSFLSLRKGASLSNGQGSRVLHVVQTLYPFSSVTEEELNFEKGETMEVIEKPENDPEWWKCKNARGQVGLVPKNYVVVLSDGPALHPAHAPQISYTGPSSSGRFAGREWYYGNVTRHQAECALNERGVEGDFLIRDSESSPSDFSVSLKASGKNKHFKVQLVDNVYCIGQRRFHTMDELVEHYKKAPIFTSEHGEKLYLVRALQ

[3] = variants of: B1; conditions: with wasp_mouse Was
[4] = variants of: B1; conditions: with nck2_human NCK2, O43639; remark: listed apart in the source

| effect of a mutation on the interaction [1] | effect of a mutation on the interaction [2] | effect of a mutation on the interaction [3] | effect of a mutation on the interaction [4] | Variant |
| --- | --- | --- | --- | --- |
| decreasing interaction | disrupting interaction | disrupting interaction | disrupting interaction | Y1176F;Y1193F;Y1217F |
| decreasing interaction | – | – | – | Y1193F;Y1217F |
| decreasing interaction | – | – | – | Y1176F;Y1217F |
